According to the nanobody polyreactivity screen of Harvey et al. (2022):

Experiment: yeast display, Sf9 membrane polyspecificity reagent, FACS + sequencing; frameworks hold sequencing errors
Outline: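 Genes from sorted yeast were amplified by colony PCR, read by MiSeq 2 × 250 sequencing and filtered on CDR length. These cells carried a synthetic nanobody library in Saccharomyces cerevisiae BJ5465 and were sorted by FACS into low and high (top ~1%) gates on anti-HA and streptavidin fluorescence. Polyreactivity is labelled according to the gate of origin.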

Sequence: QVQLVESGGGLVQAGGSLRLSCAASGITLYGYAMGWYRQAPGKEREFVAAISRSGDRTYYADSVKGRFTISRDNAKNTVYLQMNSLKPEDTAVYYCNAWRYDYWGQGTQVTVSS
- polyreactivity (PSR sort gate): high polyreactivity

Sequence: QVQLVESGGGLVQAGGSLRLSCAASGITLYRYVMGWYRQAPGKERELVADISGRGTSTYYADSVKGRFTISRDNAKNTVYLQMNSLKPEDTAVYYCNAEYTKTGALVIPYTYYYAEDYWGQGTQVTVSS
- polyreactivity (PSR sort gate): low polyreactivity

Sequence: QVQLVESGGGLVQAGGSLRLSCAASGITLYYYTMGWYRQAPGKERELVAAISGSGGSTYYADSVKGRFTISRDNAKNTVYLQMNSLKPEDTAVYYCNTARSLKNHFYKYDYWGQGTQVTVSS
- polyreactivity (PSR sort gate): high polyreactivity

Sequence: QVQLVESGGGLVQAGGSLRLSCAASGITSQSYAMGWYRQAPGKERELVAGISASGGRTFYADSVKGRFTISRDNAKNTVYLQMNSLKPEDTAVYYCNKLSSDSYNYWGQGTQVTVSS
- polyreactivity (PSR sort gate): high polyreactivity

Sequence: QVQLVESGGGLVQAGGSLRLSCAASGITSSAYAMGWYRQAPGKERELVARITWSGGRTHYADSVKGRFTISRDNAKNTVYLQMNSLKPEDTAVYYGYWLGYKEDDYWGQGTQVTVSS
- polyreactivity (PSR sort gate): high polyreactivity

Sequence: QVQLVESGGGLVQAGGSLRLSCAASGITSSRYAMGLYRQAPGKVRELVAAISSSGGSTYYADSVKGRFTSSRDNAKTTVYLQLISLKPEDTAVYYCNVVSTRLAKYTFGFWGQGTQVTVSS
- polyreactivity (PSR sort gate): high polyreactivity

Sequence: QVQLVESGGGLVQAGGSLRLSCAASGITSYPYAMGWYRQAPGKERELVAAISKRGGGTYYADSVKGRFTISRDNAKNTVYLQMNSLKPEDTAVYYCAKSWGPTTYKIVPAYGYWGQGTQVTVSS
- polyreactivity (PSR sort gate): high polyreactivity

Sequence: QVQLVESGGGLVQAGGSLRLSCAASGITYDKYAMGWYRQAPGKERELVAAITKSSGSTYYADSVKGRFTISRDNAKNTVYFQMNSLKPEDTAVYYCAAGIVYGYYYWGQGTQVTVSS
- polyreactivity (PSR sort gate): high polyreactivity

Sequence: QVQLVESGGGLVQAGGSLRLSCAASGIYGYNAMGWYRQAPGKERELVAAITSSGTSTYYADSVKGRFTISRDNAKNTVYLQMNSLKPEDTAVYYCAALHSGTWTGYGYWGQGTQVTVSS
- polyreactivity (PSR sort gate): low polyreactivity

Sequence: QVQLVESGGGLVQAGGSLRLSCAASGLALGWYRQAPGKERELVAVITSDGRTYYADSVKGRFTISRDNAKNTVYLQLNSLKPEDTAVYYCARDSRTIRYYAWFYPFRYDYWGQGTQVTVSS
- polyreactivity (PSR sort gate): low polyreactivity

Sequence: QVQLVESGGGLVQAGGSLRLSCAASGLFFSYYAMGWYRQAPGKERELVAAINSGGSTYYADSVKGRFTISRDNAKNTVYLQMNSLKPEDTAVYYCAAHLWYHGHLFDYWGQGTQVTVSS
- polyreactivity (PSR sort gate): high polyreactivity

Sequence: QVQLVESGGGLVQAGGSLRLSCAASGLICGFYAMGWYRQAPGKERELVADITTSGARTYYADSVKGRFTISRDNAKNTVYLQMYSLKPEDTAVYYCNKDHSSYGASGYDYWGQGTQVTVSS
- polyreactivity (PSR sort gate): low polyreactivity

Sequence: QVQLVESGGGLVQAGGSLRLSCAASGLICTYYAMGWYRQAPGKEWEFVAGISKSTSSTYYADSVKGRFTISRDNAKNTVYLLMISLKPEDTAVYYCAAQGGRNRGYRYYWGQGTQVTLSS
- polyreactivity (PSR sort gate): high polyreactivity

Sequence: QVQLVESGGGLVQAGGSLRLSCAASGLIFADNAMGWYRQAPGKEWELVASITLGDTSTYYADSVKGRFTISRYNAKNTVYLQMNSLKPEDTAVYYCAKDVYPSVSLYELPDDYWGQGTQVTVSS
- polyreactivity (PSR sort gate): low polyreactivity

Sequence: QVQLVESGGGLVQAGGSLRLSCAASGLIFADYVMGWYRQAPGKERELVVTINQGGGSTYYADSVKGRFTISRDNAKNTVYLQMNSLKPEDTAVYYCAATWALLYAIFESYDYWGQGTQVTVSS
- polyreactivity (PSR sort gate): low polyreactivity

Sequence: QVQLVESGGGLVQAGGSLRLSCAASGLIFAINAMGWYRQAPGKEREMVAAIRWSGDSTYADSVKGRFTISRDNAKNTVYLQMNSLKREDTAVYYCAADDLLDYDYWGQGTQVTVSS
- polyreactivity (PSR sort gate): low polyreactivity

Sequence: QVQLVESGGGLVQAGGSLRLSCAASGLIFAYAMGWYRQAPGTERELVAAISGRDGSTYYADSVKGRFTISRDNAKNTVYLQMNSLKPEDTAVYYCAKRISYLPVEMDYWGQGTQVTVSS
- polyreactivity (PSR sort gate): low polyreactivity

Sequence: QVQLVESGGGLVQAGGSLRLSCAASGLIFDCYARGWYRQAPGKERELVAAITYTGGSTYYADSVKGRFTISRDNAKNTDYIQMNSLKPEDTAVYYCAARRQRDRYGYWGQGTQVTVSS
- polyreactivity (PSR sort gate): high polyreactivity

Sequence: QVQLVESGGGLVQAGGSLRLSCAASGLIFDSYAMGWYRQAPGKERELVAAITYTGGSTYYADSVKGRFTISRDNAKNTVYLQMNSLKPEDTAVYYCAARRQRDRYGYWGQGTQVTVSS
- polyreactivity (PSR sort gate): high polyreactivity

Sequence: QVQLVESGGGLVQAGGSLRLSCAASGLIFFFYAMGWYRQAPGKERELVAAISSGGTTNYADSVKGRFTISRDNAKNTVYLQMNSLKPEDTAVYYCAARPSTYWSLGQHYGISGYWGQGTQVTVSS
- polyreactivity (PSR sort gate): low polyreactivity

Sequence: QVQLVESGGGLVQAGGSLRLSCAASGLIFFFYAMGWYRQAPGKERELVASISGGGITYYADSVKGRFTISRDNAKNTVYLQMNSLKPEDTAVIKNDYWGQGTQVTVSS
- polyreactivity (PSR sort gate): low polyreactivity

Sequence: QVQLVESGGGLVQAGGSLRLSCAASGLIFGAYTMGWYRQAPGKERELVASITTSGDSTYYADSVKGRFTISRDNAKNTVYLQMNSLKPEDTAVYYCAAESTVGTDLGGDSWGQGTQVTVSS
- polyreactivity (PSR sort gate): high polyreactivity

Sequence: QVQLVESGGGLVQAGGSLRLSCAASGLIFGEYDMGWYRQAPGKERELVAAISDRGTSTYYADSVKGRFTISRDNAKNTVYLQMNSLKPEDTAVYYCATDRNYYYSWEYDYWGQGTQVTVSS
- polyreactivity (PSR sort gate): low polyreactivity

Sequence: QVQLVESGGGLVQAGGSLRLSCAASGLIFGGNAMGWYRQAPGKERELVAAISRSTGRTYYADSVKGRFTISRDNAKNTVYLQMNSLKPEDTAVYYCNAVGYAFPSYDSWGQGTQVTVSS
- polyreactivity (PSR sort gate): high polyreactivity

Sequence: QVQLVESGGGLVQAGGSLRLSCAASGLIFGRYAMGWYRQAPGKERELVAAITGRGGSTYYADSVKGRFTISRDNAKNTVYLQMNSLKPEDTAVYYCNKVYNPKSYIQYDYWGQGTQVTVSS
- polyreactivity (PSR sort gate): high polyreactivity

Sequence: QVQLVESGGGLVQAGGSLRLSCAASGLIFGSNAMGWYRQAPGKERELVAGISGSGEHYVLRRSVKGRVTISRDNAKNTVYVPMNSLKPEDTAVYYCATYSQSSKGPAGYDYWGQGTHVTVSS
- polyreactivity (PSR sort gate): high polyreactivity

Sequence: QVQLVESGGGLVQAGGSLRLSCAASGLIFGTNAMGWYRQAPGKERELVAAISGSGGRTYYADSVKGRFTISRDNAKNTVYLQMNSLKPEDTAVYYCAADYVYGTRDDYWGQGTQVTVSS
- polyreactivity (PSR sort gate): high polyreactivity

Sequence: QVQLVESGGGLVQAGGSLRLSCAASGLIFGWYAMGWSRQAPGKEREFVASIRYGGGSTYYADSVKGRFTISRDYAKNTVYLQMNSLKPEDTAVYYCAADRYPWHLQYVEYDSDYWGQGTQVTVSS
- polyreactivity (PSR sort gate): low polyreactivity

Sequence: QVQLVESGGGLVQAGGSLRLSCAASGLIFGYNAMGWYRQAPGKESELVAAISSSGGSTSYADSVKGRFTISRDNAKNTVYLQMNSLKPEDTAVYYCAAKPGRYADYDYNSWGQGTQVTVSS
- polyreactivity (PSR sort gate): low polyreactivity

Sequence: QVQLVESGGGLVQAGGSLRLSCAASGLIFGYYAMGWYRQAPGKERELVARITRRGGSTYYADSVKGRFTISRDNAKNTVYLQMNSLKPEDTAVYDCAADWYSPRISREYDYWGQGTQVTVSS
- polyreactivity (PSR sort gate): high polyreactivity

Sequence: QVQLVESGGGLVQAGGSLRLSCAASGLIFIVNAMGWYRQAPGKDRELVAAISSGGSTNYADSVKGRFTISRDNAKNTVYLQMNSLKPEDTAVYYCNAGRGPITQNVGSLAYRSDYWGQGTQVTVSS
- polyreactivity (PSR sort gate): low polyreactivity

Sequence: QVQLVESGGGLVQAGGSLRLSCAASGLIFKFYAMGGYRQAAGKERELVARISSSGGSTYYADSVKGRFTISRDNAKNTVYLQMNSLKPEDTAVYYCAAGAYYVERYARSSIFSYYYWGQGTQVTVSS
- polyreactivity (PSR sort gate): high polyreactivity

Sequence: QVQLVESGGGLVQAGGSLRLSCAASGLIFKNNAMGWYRQAPGKERELVAAIDSIGGSTYYADSVKGRFTISRDNAKNTVYLQMNSLKPEDTAVYYCATDYYFYPHSQYDYWGQGTQVTVSS
- polyreactivity (PSR sort gate): low polyreactivity

Sequence: QVQLVESGGGLVQAGGSLRLSCAASGLIFKSNAMGWYRQAPGKERELVAAITRTGGSTYYADSVKGRFTISRDNAKNTVYLQMNSLKPEDTAVYYCAKVVGRWRSSWELDYWGQGTQVTVSS
- polyreactivity (PSR sort gate): high polyreactivity

Sequence: QVQLVESGGGLVQAGGSLRLSCAASGLIFKSYVMGWYRQSPGKERELVAGITGSGGTTYYADSVKGRFTISRDNAKNTVYLQMNSLKPEDTAVYYCAAVFETGAGGFYYTLQYDSWGQGTQVTVSS
- polyreactivity (PSR sort gate): high polyreactivity

Sequence: QVQLVESGGGLVQAGGSLRLSCAASGLIFKYYALGWYRQAPGKERELVAAMSWSGGSTYYADSVKGRFTISRDTAKNTVYLQMNSLKPEDTAVYYCAADSWIYSYSALSIYDYWGQGTQVTVSS
- polyreactivity (PSR sort gate): high polyreactivity

Sequence: QVQLVESGGGLVQAGGSLRLSCAASGLIFLDYAMGWYRQAPGKERELVAAISSSGGRTYYADSVKGRFTISRDNAKNTVYLQMNSLKPEDTAVYYCATGPNSYDYWGQGTQVTVSS
- polyreactivity (PSR sort gate): high polyreactivity

Sequence: QVQLVESGGGLVQAGGSLRLSCAASGLIFLHNAMGWYRQAPGKERELVAAIRDGDSTNYADSVKGRFTISRDNAKNTVYLQMNSLKPEDTAVYYCAKDPTLVAYAPGRYDYWGQGTQVTVSS
- polyreactivity (PSR sort gate): low polyreactivity

Sequence: QVQLVESGGGLVQAGGSLRLSCAASGLIFLRNSMGLDRTAPGKERELVAAISRSGGSTYYADSVKGRFTISRDSAKYSGYLQMNSLKPVDTAVYYCAKYGYGGVIPGPDHFDYWVQGTQVTVSS
- polyreactivity (PSR sort gate): high polyreactivity

Sequence: QVQLVESGGGLVQAGGSLRLSCAASGLIFLSYGMGWYRQAPGKERELVAAISSGGSTYYADSVKGRFTISRDNAKNTVYLQMNSLKPEDTAVYYCAAEQPIEFDHWGQGTQVTVSS
- polyreactivity (PSR sort gate): low polyreactivity

Sequence: QVQLVESGGGLVQAGGSLRLSCAASGLIFLYNAMGWYRQAPGKERELVAAISSGGGRTYYADSVKGRFTISRDNAKNTVYLQMNSLKPEDTAVYYCNVASYAKKRWTMDYWGQGTQVTVSS
- polyreactivity (PSR sort gate): high polyreactivity

Sequence: QVQLVESGGGLVQAGGSLRLSCAASGLIFLYYVMAWYRQAPGKERELVAGISRSGGRTNYADSVKGRFTISRDNAKNTVYLQMNSLKPEDTAVYYCAALLSIGQPKPTWYYYWGQGTQVTVSS
- polyreactivity (PSR sort gate): high polyreactivity

Sequence: QVQLVESGGGLVQAGGSLRLSCAASGLIFNKYAMGWYRQAPGKERELVATIRRDGSTNYADSVKGRFTISRDNAKITVYLQLNILKPEDTAVYYCAADSYYTRDDYWGQGTQVTVSS
- polyreactivity (PSR sort gate): high polyreactivity
